Source: patent US8748182B2, “Mutant proteins and methods for producing them” (Heptares Therapeutics Limited, priority 2007, dated 2014)
Numbering of substitutions follows the chain as printed. Numbers in names are those of the source.

B1: E219A: A2aR point mutant (protein, UniProt P29274 1-412, looked up, variant E219A)
Adenosine receptor A2a: MPIMGSSVYITVELAIAVLAILGNVLVCWAVWLNSNLQNVTNYFVVSLAAADIAVGVLAIPFAITISTGFCAACHGCLFIACFVLVLTQSSIFSLLAIAIDRYIAIRIPLRYNGLVTGTRAKGIIAICWVLSFAIGLTPMLGWNNCGQPKEGKNHSQGCGEGQVACLFEDVVPMNYMVYFNFFACVLVPLLLMLGVYLRIFLAARRQLKQMESQPLPGARARSTLQKEVHAAKSLAIIVGLFALCWLPLHIINCFTFFCPDCSHAPLWLMYLAIVLSHTNSVVNPFIYAYRIREFRQTFRKIIRSHVLRQQEPFKAAGTSARVLAAHGSDGEQVSLRLNGHPPGVWANGSAPHPERRPNGYALGLVSGGSAQESQGNTGLPDVELLSHELKGVCPEPPGLDDPLAQDGAGVS
B2: A54L: A2aR point mutant (protein, UniProt P29274 1-412, looked up, variant A54L)
Adenosine receptor A2a: B1 Adenosine receptor A2a with A54L, A219E
B3: P260A: A2aR point mutant (protein, UniProt P29274 1-412, looked up, variant P260A)
Adenosine receptor A2a: B1 Adenosine receptor A2a with A219E, P260A
B4: R220A: A2aR point mutant (protein, UniProt P29274 1-412, looked up, variant R220A)
Adenosine receptor A2a: B1 Adenosine receptor A2a with A219E, R220A
B5: P313A: A2aR point mutant (protein, UniProt P29274 1-412, looked up, variant P313A)
Adenosine receptor A2a: B1 Adenosine receptor A2a with A219E, P313A
B6: G114A: A2aR point mutant (protein, UniProt P29274 1-412, looked up, variant G114A)
Adenosine receptor A2a: B1 Adenosine receptor A2a with G114A, A219E
B7: L241A: A2aR point mutant (protein, UniProt P29274 1-412, looked up, variant L241A)
Adenosine receptor A2a: B1 Adenosine receptor A2a with A219E, L241A
B8: K315A: A2aR point mutant (protein, UniProt P29274 1-412, looked up, variant K315A)
Adenosine receptor A2a: B1 Adenosine receptor A2a with A219E, K315A
B9: Q311A: A2aR point mutant (protein, UniProt P29274 1-412, looked up, variant Q311A)
Adenosine receptor A2a: B1 Adenosine receptor A2a with A219E, Q311A
B10: S223A: A2aR point mutant (protein, UniProt P29274 1-412, looked up, variant S223A)
Adenosine receptor A2a: B1 Adenosine receptor A2a with A219E, S223A
B11: L272A: A2aR point mutant (protein, UniProt P29274 1-412, looked up, variant L272A)
Adenosine receptor A2a: B1 Adenosine receptor A2a with A219E, L272A
B12: H230A: A2aR point mutant (protein, UniProt P29274 1-412, looked up, variant H230A)
Adenosine receptor A2a: B1 Adenosine receptor A2a with A219E, H230A
B13: L267A: A2aR point mutant (protein, UniProt P29274 1-412, looked up, variant L267A)
Adenosine receptor A2a: B1 Adenosine receptor A2a with A219E, L267A
B14: N284A: A2aR point mutant (protein, UniProt P29274 1-412, looked up, variant N284A)
Adenosine receptor A2a: B1 Adenosine receptor A2a with A219E, N284A
B15: Q226A: A2aR point mutant (protein, UniProt P29274 1-412, looked up, variant Q226A)
Adenosine receptor A2a: B1 Adenosine receptor A2a with A219E, Q226A
B16: S263A: A2aR point mutant (protein, UniProt P29274 1-412, looked up, variant S263A)
Adenosine receptor A2a: B1 Adenosine receptor A2a with A219E, S263A
B17: T224A: A2aR point mutant (protein, UniProt P29274 1-412, looked up, variant T224A)
Adenosine receptor A2a: B1 Adenosine receptor A2a with A219E, T224A
B18: K227A: A2aR point mutant (protein, UniProt P29274 1-412, looked up, variant K227A)
Adenosine receptor A2a: B1 Adenosine receptor A2a with A219E, K227A
B19: F380A: NTR point mutant (protein, UniProt P20789 1-424, looked up, variant F380A)
Neurotensin receptor type 1: MHLNSSVPQGTPGEPDAQPFSGPQSEMEATFLALSLSNGSGNTSESDTAGPNSDLDVNTDIYSKVLVTAIYLALFVVGTVGNSVTAFTLARKKSLQSLQSTVHYHLGSLALSDLLILLLAMPVELYNFIWVHHPWAFGDAGCRGYYFLRDACTYATALNVASLSVERYLAICHPFKAKTLMSRSRTKKFISAIWLASALLAIPMLFTMGLQNRSGDGTHPGGLVCTPIVDTATVKVVIQVNTFMSFLFPMLVISILNTVIANKLTVMVHQAAEQGRVCTVGTHNGLEHSTFNMTIEPGRVQALRHGVLVLRAVVIAFVVCWLPYHVRRLMFCYISDEQWTTFLFDFYHYFYMLTNALFYVSSAINPILYNLVSANFRQVALSTLACLCPGWRHRRKKRPTFSRKPNSMSSNHAFSTSATRETLY
B20: P389A: NTR point mutant (protein, UniProt P20789 1-424, looked up, variant P389A)
Neurotensin receptor type 1: B19 Neurotensin receptor type 1 with A380F, P389A
B21: G390A: NTR point mutant (protein, UniProt P20789 1-424, looked up, variant G390A)
Neurotensin receptor type 1: B19 Neurotensin receptor type 1 with A380F, G390A
B22: R395A: NTR point mutant (protein, UniProt P20789 1-424, looked up, variant R395A)
Neurotensin receptor type 1: B19 Neurotensin receptor type 1 with A380F, R395A
B23: A73L: NTR point mutant (protein, UniProt P20789 1-424, looked up, variant A73L)
Neurotensin receptor type 1: B19 Neurotensin receptor type 1 with A73L, A380F
B24: E166A: NTR point mutant (protein, UniProt P20789 1-424, looked up, variant E166A)
Neurotensin receptor type 1: B19 Neurotensin receptor type 1 with E166A, A380F
B25: G215A: NTR point mutant (protein, UniProt P20789 1-424, looked up, variant G215A)
Neurotensin receptor type 1: B19 Neurotensin receptor type 1 with G215A, A380F
B26: V229A: NTR point mutant (protein, UniProt P20789 1-424, looked up, variant V229A)
Neurotensin receptor type 1: B19 Neurotensin receptor type 1 with V229A, A380F
B27: V165A: NTR point mutant (protein, UniProt P20789 1-424, looked up, variant V165A)
Neurotensin receptor type 1: B19 Neurotensin receptor type 1 with V165A, A380F
B28: Nag7m: NTR with F358A+A86L+I260A+F342A (protein)
chain: TSESDTAGPNSDLDVNTDIYSKVLVTAIYLALFVVGTVGNSVTLFTLARKKSLQSLQSTVHYHLGSLALSDLLILLLAMPVELYNFIWVHHPWAFGDAGCRGYYFLRDACTYATALNVASLSVERYLAICHPFKAKTLMSRSRTKKFISAIWLASALLAIPMLFTMGLQNRSGDGTHPGGLVCTPIVDTATVKVVIQVNTFMSFLFPMLVISILNTVAANKLTVMVHQAAEQGRVCTVGTHNGLEHSTFNMTIEPGRVQALRHGVLVLRAVVIAFVVCWLPYHVRRLMFCYISDEQWTTALFDFYHYFYMLTNALAYVSSAINPILYNLVSANFRQVFLSTLACLCPGWRHRRKKRPTFSRKPNSMSSNHAFSTSATRETLY
B29: Nag7n: NTR with F358A+H103A+I260A+F342A (protein)
chain: B28 chain with L44A, H61A
B30: Wildtype NTR: wild-type rat neurotensin receptor (protein)
chain: B28 chain with L44A, A218I, A300F, A316F

Experiments:
[1] = Thermostability of solubilised adenosine A2a receptor and mutants (radioligand binding after or during heating); type: physicochemical; conditions: Ligand(−) format, binding after the heating step
Description: FIG. 12 Flow chart showing the two different assay formats of ligand (+) and ligand (−) used to determine receptor thermostablity.
• 1. 315 site-directed mutants made between residues 2-316 of A2aR. • 2. All of these mutants have been assayed for thermostability using an assay measuring agonist and antagonist binding after the heating step (Ligand(−) format as described in FIG. 12). • a. […] Mutations have been combined to generate mutants in a putative antagonist conformation. Wildtype A2aR has a Tm of 31° C. with ZM241385 bound. • a. Rant17 A54L+K122A+L235A Tm 48° C. (ZM241385 bound) • b. Rant19 A54L,T88A,V239A+A204L Tm 47° C. (ZM241385 bound) • c. Rant21 A54L,T88A,V239A+K122A Tm 49° C. (ZM241385 bound) • 4. Mutations from the agonist screen have been combined, but have led to only a very low level of improvement in Tm of +2° C.

[2] = Thermostability of neurotensin receptor (NTR) mutants (3H-neurotensin binding); type: physicochemical; conditions: for thermostability, heated in the presence of 3H-neurotensin: Ligand(+) format

Molecule | thermostability measured with 3H-NECA (agonist) [1] | thermostability, heated in the presence of 3H-neurotensin [2] | other results
B1 | improved thermostability |  | 
B2 |  |  | thermostability assayed with 3H-ZM241385 (antagonist) [1]: improved thermostability
B3 | improved thermostability |  | 
B4 | improved thermostability |  | 
B5 | improved thermostability |  | 
B6 | improved thermostability |  | thermostability assayed with 3H-ZM241385 (antagonist) [1]: improved thermostability
B7 | improved thermostability |  | 
B8 | improved thermostability |  | 
B9 | improved thermostability |  | 
B10 | improved thermostability |  | 
B11 | improved thermostability |  | 
B12 | improved thermostability |  | 
B13 | improved thermostability |  | 
B14 | improved thermostability |  | 
B15 | improved thermostability |  | 
B16 | improved thermostability |  | 
B17 | improved thermostability |  | 
B18 | improved thermostability |  | 
B19 |  | improved thermostability | 
B20 |  | improved thermostability | 
B21 |  | improved thermostability | 
B22 |  | improved thermostability | 
B23 |  | improved thermostability | 
B24 |  | improved thermostability | 
B25 |  | improved thermostability | 
B26 |  | improved thermostability | 
B27 |  | improved thermostability | 
B28 |  |  | Tm (neurotensin bound) [2]: 51 °C
B29 |  |  | Tm (neurotensin bound) [2]: 51 °C
B30 |  |  | Tm (neurotensin bound) [2]: 35 °C
